Experimental data reported in patent US20220017612A1 (TILOS THERAPEUTICS, published 2022).

T1: fusion protein of a human IgG1 Fc domain and human LAP-TGFβ3 (human, UniProt P10600 24-412)
T1 construct: also called Fc-huB3; human LAP-TGFβ3-Fc
T1 sequence: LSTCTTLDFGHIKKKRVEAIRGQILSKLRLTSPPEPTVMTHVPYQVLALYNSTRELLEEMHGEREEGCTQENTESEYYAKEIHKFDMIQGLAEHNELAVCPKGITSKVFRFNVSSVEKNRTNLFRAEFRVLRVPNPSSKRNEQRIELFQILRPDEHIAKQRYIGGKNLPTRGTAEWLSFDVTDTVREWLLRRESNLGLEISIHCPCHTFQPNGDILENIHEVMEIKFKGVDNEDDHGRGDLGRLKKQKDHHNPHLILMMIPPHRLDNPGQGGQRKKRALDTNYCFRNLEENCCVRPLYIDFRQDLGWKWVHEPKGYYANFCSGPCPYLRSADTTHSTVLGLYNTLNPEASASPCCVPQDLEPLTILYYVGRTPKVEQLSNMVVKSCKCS


Columns and labels:
[1] = biological target: T2, mature human TGFβ1 (free TGFβ1, without LAP) (human, UniProt P01137 279-390); test: TGFβ1 ELISA after pre-incubation of 1000 pg mature TGFβ1 with antibody; loss of signal reflects binding
T2 construct: also called mature TGFβ; free human TGFβ1
T2 sequence (P01137 279-390 limits assumed): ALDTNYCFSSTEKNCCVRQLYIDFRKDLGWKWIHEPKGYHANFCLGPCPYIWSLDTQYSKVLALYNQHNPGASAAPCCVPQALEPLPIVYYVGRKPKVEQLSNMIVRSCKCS
Experimental: To determine whether anti-LAP antibodies 28G11_hIgG1, 22F9_hIgG1, 20E6_hIgG1, 17G8_hIgG1, and 24E3_hIgG1, bind to free human TGFβ1 (i.e., mature TGFβ1 that lacks LAP), the ability of the antibodies to inhibit an anti-TGFβ ELISA was evaluated. Briefly, mature TGFβ1 (1000 pg) was incubated with the indicated anti-LAP antibodies at 10 μg/mL, an isotype control antibody as a negative control or the commercially available anti-TGFβ antibody 1D11 as a positive control for 10 minutes on ice. For example, the 1D11 antibody is commercially available from any number of sellers, for example Bio x Cell Inc. (West Lebanon, N.H.). Supernatants were assayed in a TGFβ1 ELISA (R&D Systems) according to the manufacturer instructions to measure free TGFβ1. […] Note that Figure and FIG. are used interchangeably in this application.

[2] = biological target: T3, soluble complex of the ECR3E fragment of human LTBP1 and human LAP-TGFβ1 (human, UniProt Q14766 1286-1466, limits assumed); test: bio-layer interferometry, biotinylated antibody on streptavidin tip
T3 construct: domain: third cysteine-rich domain of human LTBP1, flanked by EGFR-like domains; also called ECR3E-LAP-TGFβ1; ECR3E-LAP
T3 sequence (chain, as listed by the source limits assumed, chain 1 of 2): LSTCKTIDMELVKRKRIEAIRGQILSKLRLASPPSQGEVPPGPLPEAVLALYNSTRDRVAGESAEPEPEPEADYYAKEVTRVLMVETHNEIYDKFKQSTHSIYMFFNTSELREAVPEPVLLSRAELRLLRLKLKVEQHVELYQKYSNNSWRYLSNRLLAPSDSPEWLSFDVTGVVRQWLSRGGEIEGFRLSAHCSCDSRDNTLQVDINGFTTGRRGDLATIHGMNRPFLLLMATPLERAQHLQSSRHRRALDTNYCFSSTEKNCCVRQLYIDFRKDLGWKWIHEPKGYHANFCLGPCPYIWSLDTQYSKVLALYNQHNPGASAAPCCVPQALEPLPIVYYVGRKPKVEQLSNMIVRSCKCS
T3 sequence (Q14766 1286-1466 limits assumed, chain 2 of 2): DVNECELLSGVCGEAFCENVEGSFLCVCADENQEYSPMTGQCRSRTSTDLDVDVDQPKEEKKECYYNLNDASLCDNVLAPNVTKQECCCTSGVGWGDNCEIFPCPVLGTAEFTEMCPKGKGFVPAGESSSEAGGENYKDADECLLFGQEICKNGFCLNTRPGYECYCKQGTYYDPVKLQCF
Experimental: (§1) A streptavidin-functionalized tip was equilibrated in binding buffer (10 mM sodium phosphate, 150 mM sodium chloride, 1% (w/v) bovine serum albumin, 0.05% (w/v) sodium azide, pH 7.4) and dipped in a 5 μg/mL solution of biotinylated antibody (i.e., 20E6_H0.2aL1_hIgG1, murine 16F4, or MHG8, a GARP-specific murine IgG2a described in Lienart et al. Science 2018; 362:952-956) in binding buffer for 30 seconds to load the tip with antibody. The antibody-loaded tip was then washed in binding buffer and placed in a solution containing 0-24 nM of a fusion protein containing a human IgG1 Fc domain fused to either human LAP-TGFβ1, the soluble GARP-LAP-TGFβ1 complex, or the soluble ECR3E-LAP-TGFβ1 complex. The antigen was allowed to bind to antibody for 5 minutes (association phase), and then the tip was moved to binding buffer (dissociation phase). The binding and dissociation data for 16F4 and MHG8 were well-fit by a 1:1 binding model. The association and dissociation phases for 20E6_H0.2aL1_hIgG1 antibody were fit to a 2:1 heterogenous ligand binding model to determine the binding rate constants.
As shown in FIG. 24 and Table 21, the 20E6_H0.2aL1_hIgG1 antibody bound to free LAP-TGFβ1 and the soluble GARP-LAP-TGFβ1 complex with nanomolar affinity, but not to the ECR3E-LAP-TGFβ1 complex. […]

[3] = biological target: T1, fusion protein of a human IgG1 Fc …; test: bio-layer interferometry, biotinylated antibody on streptavidin tip, Fc-huB3 in solution
Experimental: The 20E6_H0.2aL1_IgG1 antibody was biotinylated using EZ-Link SulfoNHS-LC-Biotin (ThermoFisher). A streptavidin-functionalized tip was equilibrated in binding buffer (10 mM sodium phosphate, 150 mM sodium chloride, 1% (w/v) bovine serum albumin, 0.05% (w/v) sodium azide, pH 7.4) and dipped in a 10 μg/mL solution of biotinylated anti-LAP in binding buffer for 30 seconds to load the tip with antibody. The antibody-loaded tip was then washed in binding buffer and placed in a solution containing 0-24 nM of a fusion protein having a human IgG1 Fc domain fused to either human LAP-TGFβ1, human LAP-TGFβ2 or human LAP-TGFβ3. The antigen was allowed to bind to antibody for 5 minutes (association phase), and then the tip was moved to binding buffer (dissociation phase). The association and dissociation phases were fit to a 2:1 heterogenous ligand binding model to determine the binding rate constants. As shown in FIG. 21A and Table 17, 20E6_H0.2aL1_IgG1 bound with sub-nanomolar affinity to human LAP-TGFβ1, but not to human LAP-TGFβ2 (FIG. 21B) or LAP-TGFβ3 (FIG. 21C).

[4] = biological target: T4, fusion protein of a human IgG1 Fc domain and human LAP-TGFβ1 (human, UniProt P01137 30-390); test: BLI, 2:1 model, component 2
T4 construct: printed both as Fc-huB1 and LAP-TGFβ-Fc; also called Fc-huB1; Fc-human LAP
T4 sequence (P01137 30-390 limits assumed): as the sequence (chain, as listed by the source limits assumed, chain 1 of 2) above
Experimental: as §1
As shown in FIG. 24 and Table 21, the 20E6_H0.2aL1_hIgG1 antibody bound to free LAP-TGFβ1 and the soluble GARP-LAP-TGFβ1 complex with nanomolar affinity, but not to the ECR3E-LAP-TGFβ1 complex. As expected, the anti-GARP antibody (MHG8) bound to the GARP-LAP-TGFβ1 complex, but not to free LAP-TGFβ1 or the ECR3E-LAP-TGFβ1 complex. 16F4 bound tightly to all three constructs.

binding result [1] | binding result [2] | binding result [3] | Kd [4] [nM] | koff [4] [s⁻¹] | kon [4] [M⁻¹ s⁻¹] | Binder
no binding (tested: 10 µg/mL) | – | – | – | – | – | 22F9_hIgG1 (antibody, V domains shown) VH: QVQLQQPGAELVKPGASVKLSCKASGYTFTSYWMHWVKQRPGQGLEWIGMIHPNSGSTNYNEKFKSKATLTVDKSSSTAYMQLSSLTSEDSAVYYCAYYDYDGFFDVWGTGTTVTVSS VL: DIVLTQSPASLDVSLGQRATISCRASKSVSTSGYSYMHWYQQKSGQPPKLLIYLASNLESGVPARFSGSGSGTHFTLNIHPVEEEDAATYYCQHSRELPYTFGGGTKLEIK
– | no binding (tested: 24 nM) | no binding (tested: 24 nM) | 0.96 | 0.00092 | 960000 | 20E6_H0.2aL1_hIgG1 (antibody, also called 20E6_H0.2aL1_IgG1; humanized 20E6) heavy: not shown light: DIQMTQSPSSLSASVGDRVTITCRASQDITNYLNWYQQKPGKAVKLLIYYTSRLHSGVPSRFSGSGSGTDYTLTISSLQPEDFATYFCQQGDTLPWTFGQGTKLEIKRTVAAPSVFIFPPSDEQLKSGTASVVCLLNNFYPREAKVQWKVDNALQSGNSQESVTEQDSKDSTYSLSSTLTLSKADYEKHKVYACEVTHQGLSSPVTKSFNRGEC
